Assay results reported in article PMC9775377, “The High-Resolution Structure Reveals Remarkable Similarity in PD-1 Binding of Cemiplimab and Dostarlimab, the FDA-Approved Antibodies for Cancer Immunotherapy” (Biomedicines, 2022).

Target: T1, extracellular domain of human PD-1 (aa 26-150) (human, UniProt Q15116)
T1 construct: Programmed cell death-1 (PD-1), human, extracellular domain, aa 26-150; any point mutation of the construct would be told there or in PDB 8GY5; also called Programmed cell death-1; ectodomain of PD-1
Assay: crystal structure; Fab mixed with PD-1 at a molar ratio of 1:1.2, complex purified by gel filtration (20 mM Tris pH 7.5, 200 mM NaCl); hanging-drop vapor diffusion, 0.1 M sodium HEPES pH 7.5, 5% PEG 3350, 20 °C; 1.98 Å, two copies of the complex in the asymmetric unit
Conditions: both partners purified

T1 sequence (Q15116 26-150): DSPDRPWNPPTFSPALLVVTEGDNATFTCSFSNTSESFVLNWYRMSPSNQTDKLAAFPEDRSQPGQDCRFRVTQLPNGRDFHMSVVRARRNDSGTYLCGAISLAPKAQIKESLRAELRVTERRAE

B1: cemiplimab Fab (Fab, V domains shown)
VH: EVQLLESGGVLVQPGGSLRLSCAASGFTFSNFGMTWVRQAPGKGLEWVSGISGGGRDTYFADSVKGRFTISRDNSKNTLYLQMNSLKGEDTAVYYCVKWGNIYFDYWGQGTLVTVSS
VL: DIQMTQSPSSLSASVGDSITITCRASLSINTFLNWYQQKPGKAPNLLIYAASSLHGGVPSRFSGSGSGTDFTLTIRTLQPEDFATYYCQQSSNTPFTFGPGTVVDFR
notes: heavy chain of the cemiplimab Fab; in PDB 8GY5 (deposited here); light chain (kappa) of the cemiplimab Fab; Cemiplimab is a fully human IgG4 (S228P) kappa antibody; also called Fab fragment of cemiplimab; LIBTAYO
- binding result: binds
